Measured values: patent EP4696714A1, “PREPARATION METHOD FOR NANOBODY TARGETING TISSUE FACTOR AND CONJUGATE AND USE THEREOF” (Fudan University, priority 2023, dated 2024)
Positions count from the first letter of the chain named. Like-named read-outs stand apart in the source and are kept apart here.

Experiments:
[1] = target: T1, TF on the surface of tumor cells (MDA-MB-231, HPAF-II, HCC1806, BxPC3, HCC44, PC9, H1975 and other … (UniProt P13726 33-295, limits assumed)); test: cell-based or functional assay
[2] = target: T1, TF on the surface of tumor cells …; test: cell-based or functional assay; remark: listed apart in the source
[3] = target: T2, human TF extracellular domain protein (TF-ECD, Met 1-Glu 251) (human, UniProt P13726 33-251); test: ForteBio OCTET R2; His-tagged antigen on NTA sensor, nanobody-Fc 25-1.56 nM in solution, 25°C
T2 construct: range 1-251; also called human TF-ECD; not shown: His tag (protein captured on an NTA sensor as 'FDYKSD-01-His')

[4] = target: T1, TF on the surface of tumor cells …; test: flow cytometry on MDA-MB-231 cells, PE-labeled secondary antibody

B1: 4-C05-FC1-MMAE (4-C05-FC1 coupled to mc-vc-MMAE) (Fc fusion)
chain: QVQLVESGGGLVQPGGSLRLSCAASGFTLDTYAIGWIRQAPGKEREGVSCISSTDGSTYYAASVKGRFTINRDNAKNTVYLQMNSLKPEDTAVYYCAAGPGTDCPLRFDYWGQGIQVTVSSEPKSSDKTHTCPPCPAPEFEGGPSVFLFPPKPKDTLMISRTPEVTCVVVDVSHEDPEVKFNWYVDGVEVHNAKTKPREEQYNSTYRVVSVLTVLHQDWLNGKEYKCKVSNKALPASIEKTISKAKGQPREPQVYTLPPSRDELTKNQVSLTCLVKGFYPSDIAVEWESNGQPENNYKTTPPVLDSDGSFFLYSKLTVDKSRWQQGNVFSCSVMHEALHNHYTQKSLSLSPGK
modifications: mc-vc-MMAE coupled to cysteine thiols after TCEP reduction; target DAR 4; positions not given
- Cell proliferation inhibition IC50, BxPC3 cells (MTS) [1]: 8.6 ng/mL
- Cell proliferation inhibition IC50, HCC1806 cells (MTS) [1]: 14 ng/mL
- Cell proliferation inhibition IC50, HPAF-II cells (MTS) [1]: 7.7 ng/mL

B2: 4-A02-ABD-MMAE (4-A02-ABD coupled to mc-vc-MMAE) (other)
chain: QVQLVESGGGLVQPGGSLSLSCTASETISSTYIMGWHRRSPGKERELVAVISGDGVTHYADFVKGRFVISRDNAKNAVYLKMNFLTPEDTAVYYCYAAGRWNHWGQGTQVTVSSGGGGSGGGGSGGGGSQHDEAVDANSLAEAKVLANRELDKYGVSDYYKNLINNAKTVEGVKALIDEILAALPAAACAAAHHHHHH
modifications: mc-vc-MMAE coupled to a cysteine thiol after TCEP reduction; DAR 1; position not stated
- Cell proliferation inhibition IC50, BxPC3 cells (MTS) [2]: 0.3 ng/mL
- Cell proliferation inhibition IC50, H1975 cells (MTS) [2]: 163 ng/mL
- Cell proliferation inhibition IC50, HCC44 cells (MTS) [2]: 79.4 ng/mL
- Cell proliferation inhibition IC50, HPAF-II cells (MTS) [2]: 1.3 ng/mL
- Cell proliferation inhibition IC50, PC9 cells (MTS) [2]: 5 ng/mL

B3: 4-A02-FC1-MMAE (4-A02-FC1 coupled to mc-vc-MMAE) (Fc fusion)
chain: QVQLVESGGGLVQPGGSLSLSCTASETISSTYIMGWHRRSPGKERELVAVISGDGVTHYADFVKGRFVISRDNAKNAVYLKMNFLTPEDTAVYYCYAAGRWNHWGQGTQVTVSSEPKSSDKTHTCPPCPAPEFEGGPSVFLFPPKPKDTLMISRTPEVTCVVVDVSHEDPEVKFNWYVDGVEVHNAKTKPREEQYNSTYRVVSVLTVLHQDWLNGKEYKCKVSNKALPASIEKTISKAKGQPREPQVYTLPPSRDELTKNQVSLTCLVKGFYPSDIAVEWESNGQPENNYKTTPPVLDSDGSFFLYSKLTVDKSRWQQGNVFSCSVMHEALHNHYTQKSLSLSPGK
modifications: mc-vc-MMAE coupled to cysteine thiols after TCEP reduction; target DAR 4 for the dimer (about 95% DAR4 by HIC); positions not given
- Cell proliferation inhibition IC50, BxPC3 cells (MTS) [2]: 0.8 ng/mL
- Cell proliferation inhibition IC50, H1975 cells (MTS) [2]: 2.2 ng/mL
- Cell proliferation inhibition IC50, HCC44 cells (MTS) [2]: 2.2 ng/mL
- Cell proliferation inhibition IC50, HPAF-II cells (MTS) [2]: 0.2 ng/mL
- Cell proliferation inhibition IC50, PC9 cells (MTS) [2]: 0.4 ng/mL
- Cell proliferation inhibition IC50, BxPC3 cells (MTS) [1]: 0.1 ng/mL
- Cell proliferation inhibition IC50, HCC1806 cells (MTS) [1]: 0.1 ng/mL
- Cell proliferation inhibition IC50, HPAF-II cells (MTS) [1]: 0.7 ng/mL

B4: 4-E04-FC1-MMAE (4-E04-FC1 coupled to mc-vc-MMAE) (Fc fusion)
chain: B3 chain with Q1A, T23A, T27M, H37Y, A60G, V68A, A74V, Y96N, W101R
modifications: mc-vc-MMAE coupled to cysteine thiols after TCEP reduction; the coupling did not complete and the proportion of coupling products was very low; positions not given
- Cell proliferation inhibition IC50, BxPC3 cells (MTS) [1]: 28.8 ng/mL
- Cell proliferation inhibition IC50, HCC1806 cells (MTS) [1]: 32.6 ng/mL
- Cell proliferation inhibition IC50, HPAF-II cells (MTS) [1]: 24.3 ng/mL

B5: 4-A02-FC1 (chimeric nanobody: 4-A02 VHH fused with human Fc mutant fragment FC1) (Fc fusion)
chain: B3 chain
notes: VHH-Fc fusion expressed in HEK293; also called chimeric antibody 4-A02
- Kd [3]: 2.09 nM
- EC50 [4]: 80 ng/mL

B6: 4-A02-FC1-DXd (4-A02-FC1 coupled to GGFG-DXd) (Fc fusion)
chain: B3 chain
modifications: GGFG-DXd coupled to cysteine thiols after TCEP reduction; DAR 4; positions not given
- Cell proliferation inhibition IC50, BxPC3 cells (MTS) [2]: 2.5 ng/mL
- Cell proliferation inhibition IC50, H1975 cells (MTS) [2]: > 15000 ng/mL
- Cell proliferation inhibition IC50, HCC44 cells (MTS) [2]: 19.1 ng/mL
- Cell proliferation inhibition IC50, HPAF-II cells (MTS) [2]: 2.4 ng/mL
- Cell proliferation inhibition IC50, PC9 cells (MTS) [2]: 5630 ng/mL

B7: 4-E04-FC1 (chimeric nanobody: 4-E04 VHH fused with human Fc mutant fragment FC1) (Fc fusion)
chain: B3 chain with Q1A, T23A, T27M, H37Y, A60G, V68A, A74V, Y96N, W101R
notes: built from the VHH and FC1
- Kd [3]: 7.04 nM
- EC50 [4]: 130 ng/mL

B8: 5-C12-FC1-MMAE (5-C12-FC1 coupled to mc-vc-MMAE) (Fc fusion)
chain: QVQLVESGGGLAQAGGSLRLSCAGSGRTFSTDAMGWFRQAPGKEREFVAAINWSGGSTYYADSVKGRFTISRDNAKNTVYLQMNSVKPEDTAVYYCVADSLLALLDGSRGGPGTDSDSWGQGTQVTVSSEPKSSDKTHTCPPCPAPEFEGGPSVFLFPPKPKDTLMISRTPEVTCVVVDVSHEDPEVKFNWYVDGVEVHNAKTKPREEQYNSTYRVVSVLTVLHQDWLNGKEYKCKVSNKALPASIEKTISKAKGQPREPQVYTLPPSRDELTKNQVSLTCLVKGFYPSDIAVEWESNGQPENNYKTTPPVLDSDGSFFLYSKLTVDKSRWQQGNVFSCSVMHEALHNHYTQKSLSLSPGK
modifications: mc-vc-MMAE coupled to cysteine thiols after TCEP reduction; DAR4 about 66.2% and DAR2 about 21.9% by HIC; positions not given
- Cell proliferation inhibition IC50, BxPC3 cells (MTS) [1]: 5 ng/mL
- Cell proliferation inhibition IC50, HCC1806 cells (MTS) [1]: 26 ng/mL
- Cell proliferation inhibition IC50, HPAF-II cells (MTS) [1]: 12 ng/mL

B9: F1-A01-FC1-MMAE (F1-A01-FC1 coupled to mc-vc-MMAE) (Fc fusion)
chain: EVQLVESGGGLVQAGGSLRLSCAASGRAFSAYAMGWFRQAPGKEREFVAAISWSGGSTYYADSVRGRFTISRDNTKNTVYLQMNSLKPEDTAVYYCNADSLLSLLDGSRGGPGTDSGSWGQGTQVTVSSEPKSSDKTHTCPPCPAPEFEGGPSVFLFPPKPKDTLMISRTPEVTCVVVDVSHEDPEVKFNWYVDGVEVHNAKTKPREEQYNSTYRVVSVLTVLHQDWLNGKEYKCKVSNKALPASIEKTISKAKGQPREPQVYTLPPSRDELTKNQVSLTCLVKGFYPSDIAVEWESNGQPENNYKTTPPVLDSDGSFFLYSKLTVDKSRWQQGNVFSCSVMHEALHNHYTQKSLSLSPGK
modifications: mc-vc-MMAE coupled to cysteine thiols after TCEP reduction; target DAR 4 (about 91% DAR4 by HIC); positions not given
- Cell proliferation inhibition IC50, BxPC3 cells (MTS) [1]: 1.2 ng/mL
- Cell proliferation inhibition IC50, HCC1806 cells (MTS) [1]: 4 ng/mL
- Cell proliferation inhibition IC50, HPAF-II cells (MTS) [1]: 0.7 ng/mL

B10: 4-C08-FC1-MMAE (4-C08-FC1 coupled to mc-vc-MMAE) (Fc fusion)
chain: DVQLVESGGGLVQPGGSLRLSCAVSGFSLSSYDMNWYRQGPGKEREWVANIHSSGGYPDYADAVKGRFTISRDNAKNMVYLQMNSLKPEDTAVYYCNLPPSRRWYKDYWGQGTQVTVSSEPKSSDKTHTCPPCPAPEFEGGPSVFLFPPKPKDTLMISRTPEVTCVVVDVSHEDPEVKFNWYVDGVEVHNAKTKPREEQYNSTYRVVSVLTVLHQDWLNGKEYKCKVSNKALPASIEKTISKAKGQPREPQVYTLPPSRDELTKNQVSLTCLVKGFYPSDIAVEWESNGQPENNYKTTPPVLDSDGSFFLYSKLTVDKSRWQQGNVFSCSVMHEALHNHYTQKSLSLSPGK
modifications: mc-vc-MMAE coupled to cysteine thiols after TCEP reduction; DAR4 about 41.8% and DAR2 about 42.7% by HIC; positions not given
- Cell proliferation inhibition IC50, BxPC3 cells (MTS) [1]: 0.7 ng/mL
- Cell proliferation inhibition IC50, HCC1806 cells (MTS) [1]: 0.5 ng/mL
- Cell proliferation inhibition IC50, HPAF-II cells (MTS) [1]: 1 ng/mL

B11: 4-C08-FC1 (chimeric nanobody: 4-C08 VHH fused with human Fc mutant fragment FC1) (Fc fusion)
chain: B10 chain
notes: built from the VHH and FC1
- EC50 [4]: 50 ng/mL
